The values that follow come from patent publication US20190353654A1.

In experiment [1] the target is CXCL12 24-88 (UniProt P48061). The experiment can be described thus: MicroScale Thermophoresis, labeled receptor, ligand titrated, in 50% human serum. (In general: In MST a laser heats a spot of the sample, and binding alters the fluorescence response.)
The target of experiment [2] is CXCL12 24-88 (UniProt P48061). Kind of experiment: MicroScale Thermophoresis, labeled receptor, ligand titrated, in buffer (1x PBS, 5 mM DTT).
The target of experiment [3] is CCL5 26-91 (UniProt P13501). Kind of experiment: MicroScale Thermophoresis, earlier independent purification from SF9 cells.
Chain of CCL5 26-91 (P13501 26-91 limits assumed, form in doubt): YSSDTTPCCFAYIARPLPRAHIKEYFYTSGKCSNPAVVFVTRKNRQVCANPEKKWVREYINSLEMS
Experiment [4] deals with CCL5 26-91 (UniProt P13501). Kind of experiment: MicroScale Thermophoresis, labeled receptor, ligand titrated, in 50% human serum.
Experiment [5] deals with CCL5 26-91 (UniProt P13501). Kind of experiment: MicroScale Thermophoresis, labeled receptor, ligand titrated, in buffer (1x PBS, 5 mM DTT).
In experiment [6] the target is CXCL12 24-88 (UniProt P48061). The experiment can be described thus: MicroScale Thermophoresis, later independent purification and refolding from E. coli inclusion bodies.
In experiment [7] the target is CXCL12 24-88 (UniProt P48061). Kind of experiment: MicroScale Thermophoresis, earlier independent purification and refolding from E. coli inclusion bodies.

Chain of CXCL12 24-88 (P48061 24-88 limits assumed, form in doubt): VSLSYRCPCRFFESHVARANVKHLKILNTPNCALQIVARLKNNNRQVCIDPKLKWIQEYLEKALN

B1: CXCR7^QTY (receptor, not shown: small tags and cut ends)
chain: MDLHLFDYSEPGNFSDISWPCNSSDCIVVDTVMCPNMPNKSTQQYTQSYTYTYTYTTGMTANSVVVWVNIQAKTTGYDTHCYTQNQATADQWTTQTTPTWTTSLVQHNQWPMGELTCKTTHQTYSTNQYGSTYYQTCMSVDRYLSITYFTNTPSSRKKMVRRTTCTQTWQQAYCTSQPDTYYQKTVTSASNNETYCRSFYPEHSIKEWLIGMEQTSTTQGYATPYSTTATYYYQLARAISASSDQEKHSSRKTTYSYTTTYQTCWQPYHTATQLDIFSILHYIPFTCRLEHALFTAQHTTQCQSQTHCCTNPTQYSYTNRNYRYELMKAFIFKYSAKTGLTKLIDASRVSETEYSALEQSTK
modifications: The receptor was labelled with NT647 (RED-NHS dye on lysines, positions not defined) for MST. The letters do not carry this.
In general, Kd refers to a measure of binding affinity in units of concentration. As to B1, the Kd amounted to 6.6 nM in the experiment with CXCL12 24-88 [1] and 2.2 nM with CXCL12 24-88 [2].

B2: CCR5^QTY (receptor, not shown: small tags and cut ends)
chain: MDYQVSSPIYDINYYTSEPCQKINVKQIAARQQPPQYSQTFTYGFTGNMQTTQTQINCKRLKSMTDIYLQNQAISDQYYQQTTPYWAHYAAAQWDFGNTMCQQQTGQYFTGYYSGTYYTTQQTTDRYLAVVHAVFALKARTTTYGTTTSTTTWTTATYASQPGTTYTRSQKEGLHYTCSSHFPYSQYQFWKNFQTLKITIQGQVQPQQTMVTCYSGTQKTLLRCRNEKKRHRAVRQTFTTMTTYYQYWAPYNTTQQLNTFQEFFGLNNCSSSNRLDQAMQVTETQGMTHCCTNPTIYAYVGEKFRNYLLVFFQKHIAKRFCKCCSIFQQEAPERASSVYTRSTGEQEISVGL
modifications: Receptor labelled with NT647 dye (RED-NHS, on amines) for MST; sites not specified
Turning to B2, the values for the Kd with CCL5 26-91 [3], in the experiment with CCL5 26-91 [4] and with CCL5 26-91 [5] were 42 nM, 45.9 nM and 33.9 nM, respectively.

B3: CXCR4^QTY (receptor, not shown: small tags and cut ends)
chain: MEGISIYTSDNYTEEMGSGDYDSMKEPCFREENANFNKTYQPTTYSTTYQTGTTGQGQTTQTMGYQKKQRSMTDKYRQHQSTADQQYTTTQPYWATDATANWYFGNFQCKATHTTYTTQQYSSTQTQAYTSQDRYLAIVHATNSQRPRKQQAEKTTYTGTWTPAQQQTTPDYTYANVSEADDRYICDRFYPNDLWTTTYQYQHTMTGQTQPGTTTQSCYCTTTSKLSHSKGHQKRKALKTTTTQTQAYYACWQPYYTGTSTDSFILLEIIKQGCEFENTVHKWTSTTEAQAYYHCCQQPTQYAYQGAKYKTSAQHAQTSTSRGSSQKTQSKGKRGGHSSTSTESESSSFHSS
modifications: Receptor labelled with NT647 dye (RED-NHS, on amines) for MST; sites not specified
With B3, the Kd in the experiment with CXCL12 24-88 [1] was 44.7 nM; with CXCL12 24-88 [2] it was 11.2 nM; with CXCL12 24-88 [6], 13 nM; with CXCL12 24-88 [7], 17 nM.
